Source: patent US20060078622A1, “Pharmaceutical formulations containing microparticles or nanoparticles of a delivery agent” (priority 2004, published 2006)
Where “and” joins values, the source holds several entries; their conditions need not be identical. Equal values may be shown once. Read-outs that look alike come from different tables or passages of the source.

Columns and labels:
[1] = Estimates of bioavailability (absolute, portal, relative to subcutaneous)
From the text: (§1) This value was assumed to be constant in the estimates of absolute bioavailability.
(§2) The portal bioavailability provides an estimate of drug absorption from oral delivery. […] This value is used to estimate bioavailability relative to subcutaneous.

[2] = tested on: Glucose; test: Glucose after subcutaneous (SC) administration of insulin; assay type: in vivo, rat
[3] = From the text: as §1, §2
[4] = Insulin and 4-CNAB stability in simulated gastric fluid (HPLC); settings: 37° C.
Description: The SGF was prepared with and without pepsin, a gastric enzyme. SGF pH 1.2 was prepared as per the USP NF 26 guidelines. 2 g sodium chloride and 3.2 g of pepsin were weighed and added to a suitable container, and deionized water was added to reach one liter in volume. If necessary, the pH was adjusted to 1.2 by addition of concentrated HCl or NaOH. A second SGF solution omitting the pepsin was also prepared.
Four 50 ml samples of SGF (two with pepsin and two without) were placed into a jacketed vessel connected to a circulating water bath set at 37° C. The solutions were stirred with magnetic stir bars for ten minutes to allow the solutions to reach 37° C. and reach thermal equilibrium.
The term “% of theoretical” as used herein, means the percent of the concentration (mg/mL) of withdrawn solution at the time-point the sample was taken as compared to the theoretical concentration (mg/mL) of the measuring component for experiment. The standard of deviation for the HPLC analysis is ±5%.

[5] = Stability of insulin in simulated intestinal fluid (HPLC); settings: for stability of insulin / Insulin % of theoretical: 37° C.
Description: The SIF solutions were prepared with and without pancreatic enzyme. SIF pH 7.5 was prepared as per the USP NF 26 guidelines. SIF was prepared by addition of 6.8 g monobasic potassium phosphate and 10 g of pancreatin into a suitable vessel, and deionized water was added to reach a total volume of one liter. If necessary, the pH was adjusted to 7.5 by addition of 0.2 N sodium hydroxide. A second SIF solution omitting the pancreatin, an intestinal enzyme, was also prepared.
Four 50 ml samples of SIF (two with pancreatin and two without) were placed into a jacketed vessel connected to a circulating water bath set at 37° C. The solutions were stirred with magnetic stir bars for ten minutes to allow the solutions to reach 37° C. and reach thermal equilibrium.

## Insulin: Recombinant human zinc insulin
[1]; SC (subcutaneous) dosing
  BA: 55.67%
[1]; SC administration, rat model
  absolute bioavailability: approximately 56%
[1]; from oral delivery or any other 100% GI absorption into the portal vein, from intraportal results, rat model
  maximum absolute bioavailability of insulin: approximately 60%
[2]; study 3, 0.05 mg/kg, time 0
  Glucose: 83 mg/dL
[2]; study 3, 0.05 mg/kg, time 15
  Glucose: 66 mg/dL
[2]; study 3, 0.05 mg/kg, time 30
  Glucose: 60 mg/dL
[2]; study 3, 0.05 mg/kg, time 45
  Glucose: 61 mg/dL
[2]; study 3, 0.05 mg/kg, time 60
  Glucose: 73 mg/dL
[2]; study 3, 0.05 mg/kg, time 120
  Glucose: 98 mg/dL
[2]; study 3, 0.05 mg/kg, time 180
  Glucose: 105 mg/dL
[2]; study 4, 0.05 mg/kg, time 0
  Glucose: 73 mg/dL
[2]; study 4, 0.05 mg/kg, time 15
  Glucose: 66 mg/dL
[2]; study 4, 0.05 mg/kg, time 30
  Glucose: 59 mg/dL
[2]; study 4, 0.05 mg/kg, time 45
  Glucose: 64 mg/dL
[2]; study 4, 0.05 mg/kg, time 60
  Glucose: 72 mg/dL
[2]; study 4, 0.05 mg/kg, time 90
  Glucose: 88 mg/dL
[2]; study 4, 0.05 mg/kg, time 120
  Glucose: 110 mg/dL
[2]; study 5, 0.05 mg/kg, time 0
  Glucose: 60 mg/dL
[2]; study 5, 0.05 mg/kg, time 15
  Glucose: 42 mg/dL
[2]; study 5, 0.05 mg/kg, time 30
  Glucose: 38 mg/dL
[2]; study 5, 0.05 mg/kg, time 45
  Glucose: 42 mg/dL
[2]; study 5, 0.05 mg/kg, time 60
  Glucose: 48 mg/dL
[2]; study 5, 0.05 mg/kg, time 90
  Glucose: 52 mg/dL
[2]; study 5, 0.05 mg/kg, time 120
  Glucose: 66 mg/dL
[2]; study 6, 0.05 mg/kg, time 0
  Glucose: 68 mg/dL
[2]; study 6, 0.05 mg/kg, time 15
  Glucose: 40 mg/dL
[2]; study 6, 0.05 mg/kg, time 30
  Glucose: 39 mg/dL
[2]; study 6, 0.05 mg/kg, time 45
  Glucose: 36 mg/dL
[2]; study 6, 0.05 mg/kg, time 60
  Glucose: 32 mg/dL
[2]; study 6, 0.05 mg/kg, time 90
  Glucose: 35 mg/dL
[2]; study 6, 0.05 mg/kg, time 120
  Glucose: 39 mg/dL
[2]; study 7, 0.05 mg/kg, time 0
  Glucose: 65 mg/dL
[2]; study 7, 0.05 mg/kg, time 15
  Glucose: 45 mg/dL
[2]; study 7, 0.05 mg/kg, time 30
  Glucose: 39 mg/dL
[2]; study 7, 0.05 mg/kg, time 45
  Glucose: 40 mg/dL
[2]; study 7, 0.05 mg/kg, time 60
  Glucose: 42 mg/dL
[2]; study 7, 0.05 mg/kg, time 90
  Glucose: 42 mg/dL
[2]; study 7, 0.05 mg/kg, time 120
  Glucose: 50 mg/dL
[2]; study 8, 0.05 mg/kg, time 0
  Glucose: 70 mg/dL
[2]; study 8, 0.05 mg/kg, time 15
  Glucose: 59 mg/dL
[2]; study 8, 0.05 mg/kg, time 30
  Glucose: 64 mg/dL
[2]; study 8, 0.05 mg/kg, time 45
  Glucose: 69 mg/dL
[2]; study 8, 0.05 mg/kg, time 60
  Glucose: 73 mg/dL
[2]; study 8, 0.05 mg/kg, time 90
  Glucose: 89 mg/dL
[2]; study 8, 0.05 mg/kg, time 120
  Glucose: 106 mg/dL
[3]; SC (subcutaneous) dosing, average
  AUC0->T/Dose: 0.0052 kg·min/mL
[3]; SC, average of studies 1-8
  Avg AUC0->T/Dose: 0.005159 kg·min/mL
[3]; SC, study 1, […]
  AUC0->T/Dose: 0.005601 kg·min/mL
[3]; SC, study 2, […]
  AUC0->T/Dose: 0.006514 kg·min/mL
[3]; SC, study 3, 0.05 mg/kg
  AUC0->T/Dose: 0.005562 kg·min/mL
[3]; SC, study 3, 0.05 mg/kg, time 0
  Insulin: 1.51 uU/ml
[3]; SC, study 3, 0.05 mg/kg, time 15
  Insulin: 98.85 uU/ml
[3]; SC, study 3, 0.05 mg/kg, time 30
  Insulin: 73.59 uU/ml
[3]; SC, study 3, 0.05 mg/kg, time 45
  Insulin: 61.37 uU/ml
[3]; SC, study 3, 0.05 mg/kg, time 60
  Insulin: 58.20 uU/ml
[3]; SC, study 3, 0.05 mg/kg, time 120
  Insulin: 21.34 uU/ml
[3]; SC, study 3, 0.05 mg/kg, time 180
  Insulin: 8.30 uU/ml
[3]; SC, study 4, 0.05 mg/kg
  AUC0->T/Dose: 0.004929 kg·min/mL
[3]; SC, study 4, 0.05 mg/kg, time 0
  Insulin: 0.37 uU/ml
[3]; SC, study 4, 0.05 mg/kg, time 15
  Insulin: 103.42 uU/ml
[3]; SC, study 4, 0.05 mg/kg, time 30
  Insulin: 81.64 uU/ml
[3]; SC, study 4, 0.05 mg/kg, time 45
  Insulin: 68.91 uU/ml
[3]; SC, study 4, 0.05 mg/kg, time 60
  Insulin: 58.58 uU/ml
[3]; SC, study 4, 0.05 mg/kg, time 90
  Insulin: 32.01 uU/ml
[3]; SC, study 4, 0.05 mg/kg, time 120
  Insulin: 21.15 uU/ml
[3]; SC, study 5, 0.05 mg/kg
  AUC0->T/Dose: 0.001013 kg·min/mL
[3]; SC, study 5, 0.05 mg/kg, time 0
  Insulin: 0 uU/ml
[3]; SC, study 5, 0.05 mg/kg, time 15
  Insulin: 34.90 uU/ml
[3]; SC, study 5, 0.05 mg/kg, time 30
  Insulin: 9.71 uU/ml
[3]; SC, study 5, 0.05 mg/kg, time 45
  Insulin: 16.57 uU/ml
[3]; SC, study 5, 0.05 mg/kg, time 60
  Insulin: 10.46 uU/ml
[3]; SC, study 5, 0.05 mg/kg, time 90
  Insulin: 2.94 uU/ml
[3]; SC, study 5, 0.05 mg/kg, time 120
  Insulin: 5.05 uU/ml
[3]; SC, study 6, 0.05 mg/kg
  AUC0->T/Dose: 0.007644 kg·min/mL
[3]; SC, study 6, 0.05 mg/kg, time 15
  Insulin: 191.67 uU/ml
[3]; SC, study 6, 0.05 mg/kg, time 30
  Insulin: 119.71 uU/ml
[3]; SC, study 6, 0.05 mg/kg, time 45
  Insulin: 121.33 uU/ml
[3]; SC, study 6, 0.05 mg/kg, time 60
  Insulin: 74.65 uU/ml
[3]; SC, study 6, 0.05 mg/kg, time 90
  Insulin: 42.88 uU/ml
[3]; SC, study 6, 0.05 mg/kg, time 120
  Insulin: 25.65 uU/ml
[3]; SC, study 7, 0.05 mg/kg
  AUC0->T/Dose: 0.005932 kg·min/mL
  Tmax: 30 min
[3]; SC, study 7, 0.05 mg/kg, time 0
  Insulin: 5.85 uU/ml
[3]; SC, study 7, 0.05 mg/kg, time 15
  Insulin: 90.29 uU/ml
[3]; SC, study 7, 0.05 mg/kg, time 30
  Insulin: 125.96 uU/ml
[3]; SC, study 7, 0.05 mg/kg, time 45
  Insulin: 67.83 uU/ml
[3]; SC, study 7, 0.05 mg/kg, time 60
  Insulin: 78.19 uU/ml
[3]; SC, study 7, 0.05 mg/kg, time 90
  Insulin: 45.77 uU/ml
[3]; SC, study 7, 0.05 mg/kg, time 120
  Insulin: 18.24 uU/ml
[3]; SC, study 8, 0.05 mg/kg
  AUC0->T/Dose: 0.004079 kg·min/mL
[3]; SC, study 8, 0.05 mg/kg, time 15
  Insulin: 131.71 uU/ml
[3]; SC, study 8, 0.05 mg/kg, time 30
  Insulin: 70.90 uU/ml
[3]; SC, study 8, 0.05 mg/kg, time 45
  Insulin: 66.28 uU/ml
[3]; SC, study 8, 0.05 mg/kg, time 60
  Insulin: 0.59 uU/ml
[3]; SC, study 8, 0.05 mg/kg, time 90
  Insulin: 33.96 uU/ml
[3]; SC, study 8, 0.05 mg/kg, time 120
  Insulin: 14.64 uU/ml
[3]; individual animals n 1-5
  FPE (fH): 0.18
[3]; intraportal administration, Average
  AUC-IP: 9.65
[3]; subcutaneous dosing
  average insulin AUC0→t/Dose: 0.00516 kg·min/mL
[3]; systemic administration, Average
  AUC-JV: 15.53
[4]; SGF containing pepsin, first sampling point
  insulin degraded: 97%
[4]; SGF containing pepsin, first sampling point (0 minutes)
  insulin remained: 3.0%
[4]; SGF no enzymes, with 4-CNAB, 30 minutes
  Insulin % of theoretical: 105.7%
[4]; SGF no enzymes, with 4-CNAB, 24 h
  Insulin % of theoretical: 0%
[4]; SGF with pepsin, with 4-CNAB, 0 minutes
  Insulin % of theoretical: 3.0%
[4]; SGF with pepsin, without 4-CNAB, 0 minutes
  Insulin % of theoretical: 3.0%
[4]; SGF without enzymes, without 4-CNAB, 10 minutes
  Insulin % of theoretical: 100.4%
[4]; SGF without enzymes, without 4-CNAB, 30 minutes
  Insulin % of theoretical: 100.1%
[4]; SGF without enzymes, without 4-CNAB, 1 h
  Insulin % of theoretical: 99.4%
[4]; SGF without enzymes, without 4-CNAB, 24 h
  Insulin % of theoretical: 0%
[4]; SGF without pepsin
  time insulin is stable: ≥ 2 h
[5]; SIF in presence of the enzyme (pancreatin)
  stability of insulin: degrades
[5]; SIF no enzymes, with 4-CNAB, 0 minutes
  Insulin % of theoretical: 100.2%
[5]; SIF no enzymes, with 4-CNAB, 4 minutes
  Insulin % of theoretical: 106.3%
[5]; SIF no enzymes, with 4-CNAB, 45 minutes
  Insulin % of theoretical: 99.1%
[5]; SIF no enzymes, with 4-CNAB, 24 hours
  Insulin % of theoretical: 105.6%
[5]; SIF with pancreatin, with 4-CNAB, 0 minutes
  Insulin % of theoretical: 58.9%
[5]; SIF with pancreatin, with 4-CNAB, 4 minutes
  Insulin % of theoretical: 19.3%
[5]; SIF with pancreatin, with 4-CNAB, 6 minutes
  Insulin % of theoretical: 5.4%
[5]; SIF without 4-CNAB or enzymes, 0 minutes
  Insulin % of theoretical: 92.9%
[5]; SIF without 4-CNAB or enzymes, 15 minutes
  Insulin % of theoretical: 92.7%
[5]; SIF without 4-CNAB or enzymes, 1 hour
  Insulin % of theoretical: 92.7%
[5]; SIF without 4-CNAB or enzymes, 2 hours
  Insulin % of theoretical: 94.6%
[5]; SIF without 4-CNAB or enzymes, 24 hours
  Insulin % of theoretical: 100.4%
[5]; SIF without pancreatin
  stability of insulin: stable
[5]; SIF, first sampling time point (0 minutes)
  insulin remained: 58.9% and 66.9%
